{"source": "patent US20250205362A1", "about": "“LIPID NANOPARTICLES” (NATIONAL UNIVERSITY CORPORATION HOKKAIDO UNIVERSITY, priority 2022, published 2025)", "key": {"[1]": {"experiment": "Encapsulation rate of lipid nanoparticles (Ribogreen)", "assay_type": "physicochemical", "method": "The encapsulation rate of the lipid nanoparticles was calculated by measuring the amount of encapsulated nucleic acid (the amount of ssODN in the case of RNP-ssODN) using an RNA intercalator Ribogreen (manufactured by Life Technologies)."}, "[2]": {"experiment": "Average particle diameter, PdI and zeta potential of lipid nanoparticles (dynamic light scattering)", "assay_type": "physicochemical", "method": "The mean particle diameter (number average value), ζ-mean particle diameter, and polydispersity index (PdI) of the lipid nanoparticles in PBS(−) (pH 7.4), as well as the zeta potential in 10 mM HEPES buffer (pH 7.4), were measured using an analyzing device, Zetasizer Nano ZS ZEN3600 (Malvern), which utilizes dynamic light scattering."}, "TTR gene [3]": {"system": "TTR gene", "experiment": "Measurement of TTR-KO activity (serum TTR protein, ELISA)", "assay_type": "in vivo, mouse", "how_it_was_run": "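Female BALB/c mice (4 weeks) received Cas9/sgTTR-RNP-loaded lipid nanoparticles i.v. at the indicated doses. Serum TTR protein measured by ELISA one week later. TTR-KO activity expressed as serum TTR (%) relative to untreated mice set at 100%.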"}, "BALB/c mice": {"system": "BALB/c mice", "experiment": "Measurement of Fluc activity in tissues after iv Fluc mRNA-loaded lipid nanoparticles", "assay_type": "in vivo, mouse", "conditions": "Example 1, FIG. 1; Fluc mRNA-loaded LNP 50/10/40/1.5; Balb/c mice iv 0.01 mg mRNA/kg, 6 hours", "method": "First, lipid nanoparticles encapsulating Fluc mRNA (Fluc mRNA-loaded lipid nanoparticles) were intravenously injected into BALB/c mice (female, 4 weeks old) at a dose of 0.01 mg mRNA/kg body weight. Six hours after intravenous injection, the mice were euthanized, and each tissue was collected, frozen in liquid nitrogen, and stored at −80° C. The tissues were homogenized in passive lysis buffer (Promega) using a bead cell disrupter (Micro Smash MS-100R, TOMY Seiko). Tissue debris was removed by centrifugation and the supernatant was collected. Fluc activity in the supernatant was measured using a luciferase assay system (E1500, Promega) according to the manufacturer's protocol. Luminescence was measured using a luminometer (Luminescencer-PSN, ATTO). The protein concentration was determined using a commercially available measurement kit (BCA Protein Assay Kit, Pierce). Fluc activity was expressed as relative light units (RLU) per mg of protein."}, "[4]": {"experiment": "pKa of lipid nanoparticles (TNS)", "conditions": "apparent pKa of Fluc mRNA-loaded LNP; 50/10/40/1.5 mol%; Table 5", "protocol": "The pKa of the lipid nanoparticles was measured using p-Toluenesulfonic acid (TNS). First, TNS (final concentration: 0.75 μM) and lipid nanoparticles (final concentration: 30 μM) were mixed in buffer solutions (200 mL) adjusted to various pH values (pH 3.5 to 9.5). The buffer solutions used were: 20 mM citrate buffer solution, 20 mM sodium phosphate buffer solution, or 20 mM Tris-HCl buffer solution containing 130 mM NaCl. The fluorescence intensity of the prepared mixture was measured using a spectrofluorometer (VarioskanLux, Thermo Fisher Scientific) at the setting of λex=321 nm and λem=447 nm. The highest and lowest measured values were taken as 100% and 0% charge rate, respectively, and the pH showing a 50% charge rate was calculated as the apparent pKa. The percentage of the contained cationically charged pH-sensitive cationic lipid was calculated using the Henderson-Hasselbalch equation."}, "sgTTR-G211-5FAM": {"system": "sgTTR-G211-5FAM", "experiment": "Tm value between sgRNA and ssODN by fluorescence quenching method", "assay_type": "physicochemical", "conditions": "with sgTTR-G211-5FAM in Cas9 RNP; FIG. 21(B); n=3", "method": "To measure the Tm value between sgRNA and ssODN in the RNP complex using the fluorescence quenching method, a FAM-modified sgRNA whose 5′ end was modified with the fluorescent substance FAM and a 20-base-long IBFQ-modified ssODN whose 3′ end was modified with the quenching substance IBFQ were used.\nSpecifically, IBFQ-modified ssODN (5 equivalents relative to RNP) was added to Cas9 RNP containing FAM-modified sgRNA (final RNP concentration: 2.5 μM) to form an RNP-ssODN complex. The resulting solution (10 μL) was incubated at 10° C., after which the temperature was increased by 1° C. at 10 second intervals. The fluorescence intensity was measured at each temperature from 11 to 70° C. using a thermal cycler (“Dice® Real Time System III”, TaKaRa Bio Inc.). The temperature at which the fluorescence intensity was maximized was taken as the measured Tm value (° C.)."}, "dsDNA from the TTR locus": {"system": "dsDNA from the TTR locus", "experiment": "In vitro DNA cleavage activity", "assay_type": "biochemical, mouse", "conditions": "n=3", "text": "Genomic DNA was collected and purified from BALB/c mouse liver tissue using a commercially available nucleic acid extraction kit (NucleoSpin Tissue, MACHEREY-NAGEL) according to the manufacturer's protocol.\nThe dsDNA from the TTR locus was amplified by PCR (using KAPA HiFi HotStart DNA polymerase (KAPA Biosystems)) using the genomic DNA as a template and the primer set shown in Table 4, and purified using a commercially available nucleic acid purification kit (ISOSPIN PCR Product, Nippon Gene).\nThe ssODN (5 equivalents relative to […]) was added to Cas9/sgTTR-RNP to form a TTR-RNP-ssODN complex. […] The reaction solution was then heated at 65° C. for 5 minutes to inactivate Cas9-RNP, and the dsDNA was then subjected to electrophoresis on a 3% agarose gel at 100 V for 40 minutes. After electrophoresis, the gel was stained (GelRed, Biotium) and visualized using a fluorescent/visible light gel imaging system (Printgraph CMOS I, ATTO). Bands were quantified using image analysis software (ImageJ).\nDNA cleavage was calculated using the following formula: in the formula, Int_full and Int_cleaved indicate the intensities derived from full length (uncleaved) and cleaved DNA, respectively."}, "[5]": {"experiment": "Evaluation of biodistribution (fluorescently labeled RNP-ssODN)", "assay_type": "in vivo, mouse", "conditions": "mice iv 2 mg RNP/kg, 1 hour; labeled TTR-RNP-ssODN in CL4H6 LNP (ssODN(−): free RNP, no LNP)", "method": "For fluorescent labeling of lipid nanoparticles, the RNP-ssODN solution described above was mixed with a three-fold molar amount of a fluorescent molecule (DyLight 650 NHS ester) in DMSO and incubated for 30 min at ambient temperature in the dark. Unreacted fluorescent molecules were removed by ultrafiltration (Amicon Ultra-0.5, MWCO 3 kDa, Millipore).\nLipid nanoparticles encapsulating the obtained fluorescently labeled RNP-ssODN (fluorescently labeled RNP-ssODN-loaded lipid nanoparticles) were intravenously injected into BALB/c mice (female, 4 weeks old) at 2 mg RNP/kg body weight. One hour after intravenous injection, the mice were euthanized and various tissues, including blood, were collected. The collected blood was immediately diluted with 1% sodium dodecyl sulfate (SDS) solution. The collected tissues were immediately weighed and then homogenized in 1% sodium dodecyl sulfate (SDS) solution. The resulting homogenates were transferred to a black 96-well plate, and fluorescence was measured using a microplate reader (VarioskanLux, Thermo Fisher Scientific) at settings of λex=652 nm and λem=672 nm. Calibration curves were generated using fluorescently labeled RNP-ssODN-loaded lipid nanoparticles and blood or tissue homogenates similarly prepared from untreated mice. Biodistribution was expressed as the percentage of injected dose per tissue or blood (% injected dose)."}, "TTR gene [6]": {"system": "TTR gene", "experiment": "T7E1 assay on liver genomic DNA", "assay_type": "in vivo, mouse", "conditions": "2 mg RNP/kg iv two consecutive days, one week after final injection, CL4H6 LNP, n=3", "method": "Lipid nanoparticles encapsulating TTR-RNP-ssODN complexes (TTR-RNP-ssODN-loaded lipid nanoparticles) were intravenously injected to BALB/c mice (female, 4 weeks old) at 2 mg RNP/kg body weight for two consecutive days. One week after the last injection, the mice were euthanized and liver tissues were harvested, flash frozen in liquid nitrogen, and stored at −80° C.\nGenomic DNA was extracted and purified from the collected liver tissue using a commercially available nucleic acid extraction kit (NucleoSpin Tissue, MACHEREY-NAGEL) according to the manufacturer's protocol.\nThe T7E1 assay was performed using a commercially available genome editing detection kit (Alt-R®, Integrated DNA Technologies). The dsDNA treated with T7E1 was subjected to agarose gel electrophoresis in the same manner as in the above described <Measurement of In vitro DNA Cleavage Activity>, and the gel after electrophoresis was stained and the bands were quantified."}, "[7]": {"conditions": "Fluc mRNA-loaded LNP, cationic lipid/DSPC/cholesterol/PEG-DMG 50/10/40/1.5 mol%, Table 5"}, "[8]": {"conditions": "TTR-RNP-ssODN-loaded LNP (ssODN-TTR_3-40%), cationic lipid/DSPC/cholesterol/PEG-DMG 50/10/40/3.5 mol%, Table 8"}, "[9]": {"conditions": "TTR-RNP-ssODN-loaded LNP, sgTTR-G211, CL4H6/DSPC/cholesterol/PEG-DMG 50/10/40/3.5 mol%, Table 11"}, "[10]": {"conditions": "TTR-KO activity in mice, TTR-RNP-ssODN-loaded LNP CL4H6/DSPC/cholesterol/PEG-DMG 50/10/40/3.5 mol%, sgTTR-G211 (TTR_3) or sgTTR-G269 (TTR_4)"}}, "note": "{IBFQ} = Iowa Black FQ quencher"}
{"molecule": "CCCCCC(CCCCC)CC(=O)OCCCCCCC(O)(CCCCCCOC(=O)CC(CCCCC)CCCCC)CCCCN(CCC)CCC", "note": "[CL4F8-b-5, 7-(4-(dipropylamino)butyl)-7-hydroxytridecane-1,13-diylbis(3-pentyloctanoate)]", "values": [{"measurement": "Encapsulation rate", "setting": "[1]; [7]", "value": 91.0, "unit": "%"}, {"measurement": "Encapsulation rate", "setting": "[1]; [8]", "value": 60.2, "unit": "%"}, {"measurement": "Number-average particle diameter", "setting": "[2]; [7]", "value": 68.7, "unit": "nm"}, {"measurement": "PdI", "setting": "[2]; [7]", "value": 0.185}, {"measurement": "ζ-average", "setting": "[2]; [7]", "value": 106.3, "unit": "nm"}, {"measurement": "ζ-potential", "setting": "[2]; [7]", "value": "−5.16", "unit": "mV"}, {"measurement": "Number-average particle diameter", "setting": "[2]; [8]", "value": 127.5, "unit": "nm"}, {"measurement": "PdI", "setting": "[2]; [8]", "value": 0.128}, {"measurement": "ζ-average", "setting": "[2]; [8]", "value": 178.0, "unit": "nm"}, {"measurement": "ζ-potential", "setting": "[2]; [8]", "value": "−0.95", "unit": "mV"}, {"measurement": "serum TTR activity / gene knockout versus CL4F6", "setting": "TTR gene [3]; FIG. 5, TTR-RNP-ssODN-loaded LNP, mouse serum 7 days after administration", "value": "lower serum TTR activity and higher gene knockout"}, {"measurement": "Fluc activity (gene transfer ability) in liver and spleen", "setting": "BALB/c mice", "value": "equal to or greater than that of CL4F6"}, {"measurement": "pKa", "setting": "[4]", "value": 6.25}]}
{"molecule": "ssODN-40%-3IBFQ: IBFQ bound to the 3′ end of ssODN-40% (SEQ ID NO 23), 40% matched with the ssON-paired region (DNA AAAAAAAGACGTGGAAAATT; 3' {IBFQ}, sugars by position and backbone not given here)", "values": [{"measurement": "Tm value (fluorescence quenching)", "setting": "sgTTR-G211-5FAM", "value": 32, "unit": "°C"}]}
{"molecule": "ssODN-80%-3IBFQ: IBFQ bound to the 3′ end of ssODN-80% (SEQ ID NO 22), 80% matched with the ssON-paired region (DNA AACTGTAGACGTGGCTGTTT; 3' {IBFQ}, sugars by position and backbone not given here)", "values": [{"measurement": "Tm value (fluorescence quenching)", "setting": "sgTTR-G211-5FAM", "value": 62, "unit": "°C"}]}
{"molecule": "ssODN-TTR_3-40%: ssODN pairing with sgTTR-G211, 40% matched; SEQ ID NO 7 (nucleic acid) DNA: AAAAAAAAAAAAAAAAAAAAAAAAAAAAAAAAAAAAAAAAAAAAAAAAAAAAAAAAAAAAAAAGACGTGGAAAATTAAAAAAAAAAAAAAAAAAAAAAAAAAAAAAAAAAAAAAAAAAAAAAAAAAAAAAAA", "values": [{"measurement": "in vitro DNA cleavage activity", "setting": "dsDNA from the TTR locus; FIG. 7, TTR-RNP-ssODN, sgTTR-G211, 37° C. 30 min", "value": "about the same as that of TTR-RNP-ssODN containing ssODN-TTR_3-0%"}, {"measurement": "relative DNA cleavage activity at 37° C.", "setting": "dsDNA from the TTR locus; FIG. 22(A), sgTTR-G211 RNP, activity without ssODN = 100%", "value": "about the same as that of the RNP containing ssODN-TTR_3-0%"}, {"measurement": "relative DNA cleavage activity at 15° C.", "setting": "dsDNA from the TTR locus; FIG. 22(B), sgTTR-G211 RNP, activity without ssODN = 100%", "value": "higher than that of RNP containing ssODN-TTR_3-80%, but was clearly lower than that of RNP containing ssODN-TTR_3-0%"}, {"measurement": "Encapsulation rate", "setting": "[1]; [9]", "value": 86.0, "unit": "%"}, {"measurement": "Number-average particle diameter", "setting": "[2]; [9]", "value": 85.5, "unit": "nm"}, {"measurement": "PdI", "setting": "[2]; [9]", "value": 0.094}, {"measurement": "ζ-average", "setting": "[2]; [9]", "value": 120.1, "unit": "nm"}, {"measurement": "ζ-potential", "setting": "[2]; [9]", "value": 2.54, "unit": "mV"}, {"measurement": "reduction of serum TTR protein concentration compared to untreated mice", "setting": "TTR gene [3]; 2 mg RNP/kg iv two consecutive days, one week after final injection, CL4H6 LNP", "value": 81, "unit": "%"}, {"measurement": "serum TTR activity / gene knockout activity", "setting": "TTR gene [3]; FIG. 23, CL4H6 LNP prepared at 4° C., 2.0 mg RNP/kg, 7 days", "value": "low serum TTR activity, exhibiting sufficient gene knockout activity"}, {"measurement": "KO (%) 1st test", "setting": "TTR gene [3]; [10]", "value": 47.8, "unit": "%"}, {"measurement": "KO (%) 2nd test", "setting": "TTR gene [3]; [10]", "value": 56.5, "unit": "%"}, {"measurement": "TTR-KO activity (ranking among ssODNs)", "setting": "TTR gene [3]; Table 10, CL4H6 LNP, per sgRNA", "value": "highest TTR-KO activity"}, {"measurement": "ID %/tissue blood", "setting": "[5]", "value": 7.57, "unit": "ID %/tissue"}, {"measurement": "ID %/tissue kidney", "setting": "[5]", "value": 0.14, "unit": "ID %/tissue"}, {"measurement": "ID %/tissue liver", "setting": "[5]", "value": 42.28, "unit": "ID %/tissue"}, {"measurement": "ID %/tissue lung", "setting": "[5]", "value": 0.26, "unit": "ID %/tissue"}, {"measurement": "ID %/tissue spleen", "setting": "[5]", "value": 3.49, "unit": "ID %/tissue"}, {"measurement": "KO activity at the DNA level", "setting": "TTR gene [6]", "value": 27, "unit": "%"}]}
